# B1: TCR #6 (TCR, V domains shown)
# Valpha: EDQVTQSPEALRLQEGESSSLNCSYTVSGLRGLFWYRQDPGKGPEFLFTLYSAGEEKEKERLKATLTKKESFLHITAPKPEDSATYLCAVQTMDGNQFYFGTGTSLTVIP
# Vbeta: NAGVTQTPKFQVLKTGQSMTLQCAQDMNHEYMSWYRQDPGMGLRLIHYSVGAGITDQGEVPNGYNVSRSTTEDFPLRLLSAAPSQTSVYFCASSYSLWDLQETQYFGPGTRLLVL
# B2: TCR #10 (TCR, V domains shown)
# Valpha: AQTVTQSQPEMSVQEAETVTLSCTYDTSESNYYLFWYKQPPSRQMILVIRQEAYKQQNATENRFSVNFQKAAKSFSLKISDSQLGDTAMYFCAFNPWENYGQNFVFGPGTRLSVLP
# Vbeta: GAVVSQHPSWVICKSGTSVKIECRSLDFQATTMFWYRQFPKQSLMLMATSNEGSKATYEQGVEKDKFLINHASLTLSTLTVTSAHPEDSSFYICSARPHSLTDTQYFGPGTRLTVL
# Target: T1, WT-1 (Wilms tumor protein 1) peptide on HLA-A*02:01 (human)
# T1 peptide: RMFPNAPYL
# Assay: multimer staining
row,Binder,binding result
1,B1,recognises
2,B2,recognises

# From patent publication US20220409661A1 (published 2022)
